Source: a protein production outcome set (Wang et al. 2014)

test: label from the status in PepcDB records

Protein production, failed:
MSAHQGSETVTFGDSSAERPLGRSIMRGMANRCPACGSGRLFRAFLKPVDACAACGEEMHHHRSDDLPPYISIVIIGHIAVGGFMMTDMILNIPMWAHFAIWVPITILAALLTLQPIKGGVIGLQWALRMHGFDRKQPKVQIDGSSH
MSAHRPAAATPAAAAPSKRERFLSLDVFRGLTIFLMILVNTAGPGAQAYAQLTHAAWFGFTLADLVFPSFLFAVGSAMSFALATNTPHLQFLGRVSRRAALILLCGVLMYWFPFFHLQPDGGWAFTTVDQLRLTCVLQRIGLCYLAAALLVRYLPPRGIAPVCLALLLGYWALLYAFGQPGAELSKTGNAGTRLDLWLYGRDHLYRKDGGFDPEGLLGTLSATVNVLAGYLCGRFLQRHGKTIASTRSLLLAGAGLVLLALLWAPAWPLSKKLWSGSFVACTVGLDLLALGALVYLLELRGWTGGSGFFTVLGRNPLAIYLFSELFVVVLRLIPAGSSGLDLYAWAGIGVFQTIAPGPLGSLLCALSYTLMCCAVGWWMDRRRWYLRL
MSAISPNGAEEHPIGLTLNGQRLTLQVNPWTTLLDLLREQLDLVGTKKGCDHGQCGACTVLRDGKRVNACLTLAIMCDGAELVTIEGLASGDVLHPMQRAFITHDAFQCGYCTPGQICSAVGLAREGRAYTREAIREQMSGNLCRCGAYSNIVAAVEEALPLMTDLAPPQRGPNP
MSAKKLFIQTLGCAMNVRDSEHMIAELTQKENYALTEDIKEADLILINTCSVREKPVHKLFSEVGGFEKVKKEGAKIGVCGCTASHLGNEIFKRAPYVDFVLGARNISKITQAIKTPKFMGVDIDYDESEFAFADFRNSIYKSYINISIGCDKHCTYCIVPHTRGDEISIPFNIIYKEAQKAIEKGAKEIFLLGQNVNNYGKRFRNEHKKMDFSDLLEELSTIEGLERIRFTSPHPLHMDDKFLEVFANNPKVCKSMHMPLQSGSSEILKAMKRGYTKEWYLNRALKLRELCPNVSISTDIIVAFPGESEKDFEETVDVLEKVRFEQIFSFKYSKRPLTKAATMPNQIDEEIASRRLSTLQNRHSEILDKIVKKQENKTFKVLFEELRAGNSIAGRTDNNFLVQVEGSEELLGQFKEVKITNAKRMVLYGEIVLEHHHHHH
MSALRILARFVSTRTLRIRPILEIPARCKYTQHQGVKGIRNRKSFFEAQIQAGQQGEEDADLERTANSDLADMRFLDDRAYDEVAGGAMRITRDIASSQQVLILQPYVKWAAKRQNAPVDVRPEDQLAEATALIHSLPNWQVARALKVPLESLEKKTLFGSGKLVELKELVAELRQERHLTCLFVSKGTLSFAQKRFLEAEFRLPVMDRYSVVIQILRLHATSAEAKLQVAMAELPYIWAQAKDASVTQTRRQGYALTDLQKEILRTRERKLRAELDRVRRQRQLLRQKRKQQNYPIVAVVGYTNAGKTSLIKALTVEDALQPRNQLFATLDVTAHAGCLPCNLEVIYMDTVGFMSDLPTGLFECFVATLEDAMLADVIVHVQDLSHPCHAAQRSHVEATLRSLAFNVAGGDSTASQLPPIINVYNKCDLVSQEAQSSADPVHHISARAQTGLEPLLDDIEQQILTATGRRKLQMRVPSGGPEMAWLYKNAAVVETTADAENPERLMMHVVISQRTLDQFKRQFCR
MSALSSEGFFLEKCTHFFSDKKVVFFIATLCCLLWGSAYPAIKNGYELFHIADDDIPGKLVFAGYRFAFAGLLLALAVLSGRSIGRFQRGQLAQLTILGTFQTSLQYVFFYIGLAYTTGVKGSIMNATSTFFSVLLAHYLYQNDKLNINKIIGCILGFAGVMAVNINSNGMNIGFTLLGDGFVVIAAFILSASTIYGKRISQTMDPTVMTGYQLAIGGIILTISGYCTGGSLIIPDWRAVLMLGYLILLSSAAFSLWSQLLKYNRVGMVAPFNFLIPVSGTLLSALFLNESILEWKYFFALILVCSGIWLVNRVVKTRSGK
MSAPADRSFAIERIFNAPVERVFRLWTDPLLVAQWWGIRDCTIPLCVLDVRVGGRWRIDMLTAGGALYRNQGSYLEVVENVRLSYRDEPDPEIREWAGKPPGRSRHTVSFTASGARTHVHFEVTLATAADRERLLALGMRGGWMQSFDRLEQLIGKGADHAG
MSAQDTQSLGVWSDCLTLLRLELLRAVPKSAVGLGCGKKIHANGILDEIFFPLDISIASAYVKTKMNFNPPTLQHLAGRSLMKDEALAISALQDLPMQLFPPLFKDAFTSKQSNILKQMVAAWPFPCLPVGGLMETPPHLETLKAVLDGLDLLMKQKVRLRMWKLQVLDLRDAHHDFWKGYTGIQDLVSSLDVIGKTQPVGNHPIIGGKQVMTVLMNLSFTSRHPSKYIKYLCHWAKQRKNVIQVICQKLEFGAIPAYDSLNVLGVFDLGSIQELEINKCWDMCTLALLAPGLGQMKNLQKLLLKEICITVDWPWDQKTEGLCVKQIFFQFSKLRNLQHLYLNDVYFLNEHLDQVLRCLESPLETLAITHCMLSQSDMKYLSQCPSIHQLKHLDLSGVTFINLSHPFLRSLLERVTATLKTLKLNGCMIMDFQIRALLPVLSQCSQLTEVNFEENSLSMDSLKKLLQHTANLTHLTLEKYPAPDEVYDDTGNVIPHRFIQLCSELMDTLKILRQPNHVYFVSKKCLDCHKYFIYNLEAMLCSCWQ
MSASHFLTIIKPASLAVLLLLAAGFWVLHGFIMPIAWAVVLAFTVWPWYEHVYQRAPCWMRGGWLPLAMTLLMMVLLMVPATFGVLVLGHEVQMLHRLLIKVQSSGIGAPDWLIQLPWVGGWIKETWSETFGNPETIKNALNALGMGTVFSYTRDLAAQVLHRFMSGFVTLLALFFIFRDGHGLGRQILDRSVRLFGSAGARYARHAVTAVRGTVNGMLLVGIGKGVVLGLGYWAVGLSQPVLLGTLTAVVALVPFAAKLVFGAASIYLIVQGHAMAGIVLVVYGFIITLIADNYVRPTLIGGAANIPFLPTLLGIFGGVEAMGFVGLFIGPTVMAILISLWRDWNDETRLPSA
MSATGIKRSNLNTRPVQRDASAKQTAIKGPYGKSPGCTTSCGLRLPRKTEVTAAKLIKHLGCKFAKGLRLVVMRKKKRSPPSKVSSFSGRSQPPIIPINNDSHRSEAIEDCIQFINSSSSFTRSNSTS
MSATRHRSDGHEEIVALDALPLSAAIRRRELSCREVMQAYLAQIERFNPRVNAIVSLQAESRLLTQADERDRQLARGEWLGWMHGMPQAIKDLAATSGIPTTLGSPLFAGQVPEHDAIVVERVKSSGAIVIGKTNVPEFGLGSQTYNPLFGTTRNAYDPARIAGGSSGGAAVALALRMLPVADGSDMMGSLRNPAAYNNVYGFRPSQGRVPHGPQAELFVQQLATEGPMGRSVADLARLLATQAGYDPRCPLSLRDDPRRFADDLGRDFRGARLGWLGDYAGYLPMEEGVLELCEAALGDFAELGCDVEACLPDYPLERLWRTWLVHRQWLVQGSLGELYADPARRVRLKPEAQWEVESGLGLGAAEVYRASLDRSDWYRALARLFERYDFLLLPSAQVFPFDAETAWPRQVAGRPMDTYHRWMEVVIGPTLAGLPAISVPIGFGAAGLPMGLQIIGPAQADLAVLQLAHAHEGLTRWVSRRPPAMLEAPGGI
MSAVMARRIAVVGGGVAGLMAAWWASNYGYDVVVYEADLSSLTATRVSAGIIDPTIDISLAPVALETLSLLKRLGLGLESRLLWLHERGSCRRLERLLSDKGIIERSVAGEESIRLGRYTVNLGYGEELHVINTIIVDTGEFYSLASSASNVDIVEDSVEYVGCGSVGLKRGGSREFDAIIVAAGPWTGFISGLQALSNMLRVYRCEALIIRAGGGPFAVVDDILDFYLSIHASGDGVLGNGCCVEIASPLDGYRYSGDVLDAVISRSIERLEGLGEAELITPVSAPCVVGRDARPVLGMLPGCSRVYLLAGLDGVGVTLAPVLARLVVESIATGSQEPIPPEMAASRPTSSSESVVKEPVEEC
MSCYSDSITPDSFSGIVFALEGVSRSIVLINGPSGCKYYHSAVSDNQTLRQYEFDPFNYSEKWYFGQPRVPCTYLDSDDYIYGSTDKLTEALEFLRDNAPFDLLCIVNSPGAALIGDDLRGIAGRIIKEKSVVIIETPDFSRDICTGYETAAAALLDSLPLNSAARSQPNTVNILGLSIFHKYFAGDILELRRLLELCGVTVNCFLCADCDIDTIRRIPEAALNIVIHPEYGMKTARCLKERYGTPFYLCDGPPIGFSATEKFIGGICTALGCDSSLFRRESERARARAYAYISQVNSLTGLPKGVHFAVEGTYSELYAYTSFLVRYFGMIPEALSVLNEGSDCCKERLQALLNGLALPQALDRDLTETDSELVFASGNTIAKLKLRRHMFSGIEISLPSLGYIDVIPKTHIGLQGALMLTEQVLNGLAF
